# According to patent publication US20150086481A1, “DIAGNOSIS AND TREATMENT OF PARKINSON'S DISEASE” (MEMORIAL SLOAN-KETTERING CANCER CENTER, priority 2011, published 2015):
# Entries after “also recorded” stand apart in the source; their conditions may differ. Where no end group is shown, it is not given here.
# Biological target: T1, GUCY2C receptor (Mus musculus, UniProt Q3UWA6)
# T1 construct: from tissue; host or cells: adult mouse brain (substantia nigra mDA neurons), in vivo after tail vein injection
# T1 sequence (Q3UWA6 20-1072): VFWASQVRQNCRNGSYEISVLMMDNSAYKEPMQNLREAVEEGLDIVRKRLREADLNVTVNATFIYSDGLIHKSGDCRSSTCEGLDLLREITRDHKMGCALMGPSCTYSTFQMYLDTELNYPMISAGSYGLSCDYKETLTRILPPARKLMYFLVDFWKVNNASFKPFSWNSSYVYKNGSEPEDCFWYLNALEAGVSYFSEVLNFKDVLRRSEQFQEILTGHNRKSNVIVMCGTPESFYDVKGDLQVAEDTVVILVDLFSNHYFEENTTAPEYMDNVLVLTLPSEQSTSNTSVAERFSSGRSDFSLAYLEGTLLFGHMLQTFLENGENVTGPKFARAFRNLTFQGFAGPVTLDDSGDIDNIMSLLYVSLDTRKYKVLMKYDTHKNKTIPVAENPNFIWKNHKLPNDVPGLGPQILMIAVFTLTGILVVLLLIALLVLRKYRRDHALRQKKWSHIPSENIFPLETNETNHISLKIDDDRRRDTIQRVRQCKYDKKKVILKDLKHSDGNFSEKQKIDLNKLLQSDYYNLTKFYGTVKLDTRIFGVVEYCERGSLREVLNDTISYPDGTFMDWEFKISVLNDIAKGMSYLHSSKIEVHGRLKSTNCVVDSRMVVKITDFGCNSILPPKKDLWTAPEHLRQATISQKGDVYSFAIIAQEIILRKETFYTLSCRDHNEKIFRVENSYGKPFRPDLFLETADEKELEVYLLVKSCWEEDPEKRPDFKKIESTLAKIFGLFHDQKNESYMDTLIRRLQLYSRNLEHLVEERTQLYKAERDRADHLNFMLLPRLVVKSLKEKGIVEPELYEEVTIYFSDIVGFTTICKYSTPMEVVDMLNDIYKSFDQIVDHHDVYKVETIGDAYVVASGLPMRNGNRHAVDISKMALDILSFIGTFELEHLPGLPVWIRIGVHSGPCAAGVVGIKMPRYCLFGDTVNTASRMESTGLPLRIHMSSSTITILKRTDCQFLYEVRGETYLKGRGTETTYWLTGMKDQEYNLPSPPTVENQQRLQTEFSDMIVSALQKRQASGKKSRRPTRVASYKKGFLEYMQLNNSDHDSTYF
# Assay: Autoradiography of sagittal brain sections after tail vein injection of ^131I-guanylin
# Type: in vivo
# Experimental: The GUCY2C receptor binds to heat stable enterotoxins, to guanylin and to uroguanylin. Guanylin is a 15 amino acid polypeptide (PGTCEICAYAACTGC, SEQ ID NO:1) that contains a tyrosine residue within the middle of its structure (Bryant et al., Life Sci. 86:760-765 (2010)). Guanylin (R&D Systems, Inc., Minneapolis, Minn.) was radiolabeled with ^131Iodine. 1 mCi of ^131I-guanylin was injected in the tail vein of adult mice and animals were sacrificed 10 minutes post-injection without perfusion.
substance,measurement,setting,value
"^131I-guanylin: Guanylin, a 15 amino acid polypeptide GUCY2C ligand (R&D Systems), radiolabeled with ^131Iodine (PGTCEICAYAACTGC; ends and bridges not checked; also: 131I radiolabel; UniProt Q02747 101-115, looked up)",crossing of the blood brain barrier,"adult mice, 1 mCi tail vein injection, 10 minutes post-injection",crossed the blood brain barrier
same,localization of radioactive signal in sagittal brain sections (autoradiography),"adult mice, 1 mCi tail vein injection, sacrificed 10 minutes post-injection without perfusion",localized to the ventricles; also recorded: within the brain parenchyma the only “hot spot” was indeed localized to the GUCY2C expression domain; also recorded: strong emission in the ventricles and SN
same,binding to GUCY2C expressing mDA neurons in the SN,"adult mouse brain, after tail vein injection, signal specific to TH-expressing mDA neurons",bound to GUCY2C expressing mDA neurons in the SN of the adult brain; also recorded: specific binding to the GUCY2C receptor
